Data reported in US20220380473A1, “ANTI-GAL3 ANTIBODIES AND USES THEREOF” (TrueBinding, Inc., priority 2019, published 2022).
“Also recorded” adds a separate entry of the source.

Assays:
[1] = system: mouse unilateral ureteral obstruction (UUO) model of kidney fibrosis; assay: Mouse UUO model of kidney fibrosis (Example 32); format: in vivo; details: treated one day before UUO; for KIM-1 levels / serum NGAL levels: vs isotype control; for picosirius red staining of kidney, image quantification: isotype 2.65%
Description: To further evaluate the ability of GAL3-targeted antibodies with the ability to block TIM3-GAL3 assembly to impact fibrosis, we evaluated the impact of humanized IMT001-4 and IMT006-1 in the mouse unilateral ureteral obstruction (UUO) model of kidney fibrosis. Briefly, 8-week-old C57BL/6J male mice were divided into sham, UUO with HuIgG4−, and UUO with HuIMT001-4, HuIMT006-1, and UUO with metformin-treatment. HuIgG4, HuIMT001-4 and HuIMT006-1 were each administered by intraperitoneal route at 10 mg/kg Q2Dx3 whereas metformin (500 mg/kg/day) was administered to mice dissolved in drinking water. In some settings therapeutic antibodies or metformin was administered 1 day before UUO, whereas in other experiments therapeutic antibodies or metformin was administered 1 day after UUO. After 7 days of UUO surgery, mice were sacrificed, left kidney was harvested and fixed with 4% paraformaldehyde for immunohistochemistry (IHC) and blood was collected in Heparin-EDTA tubes for blood biochemistry analysis. Levels of plasma mouse TIM-1/KIM-1/HAVCR were measured using a commercial ELISA kit (Catalog #MKM100; R&D Systems, Minneapolis, Minn.) according to the protocol provided by the manufacturer. Levels of plasma mouse Lipocalin-2/NGAL were measured using a commercial ELISA kit (Catalog #DY1857; R&D Systems, Minneapolis, Minn.) according to the protocol provided by the manufacturer. 5 um sections of fixed kidney specimens were produced and processed for picosirius red staining as described for liver specimens above.
To evaluate the robustness of TIM3-GAL3 blocking antibodies in reducing kidney fibrosis, the ability of mIMT001 to inhibit fibrosis when administered one day after UUO surgery was evaluated. Following UUO surgery and treatment with isotype or control antibodies, kidney specimens were harvested and stained by IHC for Collagen 1a1 (Col1a1), a marker of kidney fibrosis.

Galectin-3 = Galectin-3 (Homo sapiens, UniProt P17931); assay: SPR (BiacoreT200) binding affinity; details: 25° C., read-out: hGal-3 KD
Protocol: GAL3-binding antibodies were evaluated for their binding affinity by SPR. Kinetics experiments were performed on BiacoreT200 at 25° C. in high performance mode. Ligand proteins, purified antibodies were captured onto a CM5 chip coupled with anti-human Fc or anti-mouse Fc antibody, three antibodies at a time onto flow cell #2, 3, and 4, respectively, while flow cell #1 was used as reference. The analyte Galectin-3 in HBS-EP buffer was injected over all four flow cells at concentrations of 100, 50, 25, 12.5, 6.25, 3.125 and 0 nM at a flow rate of 30 μL/min. The complex was allowed to associate and dissociate for 240 and 300 seconds, respectively. The surfaces were regenerated with a 30 second injection of 10 mM Glycine pH 1.7 (flow rate 30 μL/min). The data were fit to a simple 1:1 interaction model using the global data analysis option available within BiacoreT200 Evaluation software V2.0. The affinity of Gal3 monoclonal antibodies was confirmed to be […] 30 nM for all antibodies studied (Table 24.1). Antibodies with affinity less than 2E-7 were selected for further characterization.

[2] = biological target: T1, association of GAL3 and TIM3 (Homo sapiens, UniProt P17931); assay: GAL3-TIM3 blocking ELISA (Examples 24, 27); format: binding; details: for GAL3-TIM3 Blocking @ 3 ug/mL: 3 ug/mL antibody
T1 construct: full-length human Galectin-3 protein (Acro Biosystems, GA3-H5129); linker-spaced 6-histidine tag; purchased Acro Biosystems GA3-H5129 (Gal3); TM3-H5229 (TIM-3)
Protocol: Positively scoring wells were evaluated for the ability to block association of GAL3 and TIM3. To identify GAL3-targeted antibodies with the ability to block the interaction of GAL3 and TIM3, purified GAL3 and TIM3 proteins were incubated in the presence of GAL3-immunization hybridoma supernatants described above, or without antibody, and protein interaction was evaluated by ELISA. Human Galectin-3 protein (Acro Biosystems, GA3-H5129) was diluted in PBS (Corning, 21-030-CM) to a concentration of 3 μg/ml and added to the wells of a 96-well ELISA plate (Thermo Fisher, 44-2404-21). After incubating the plate at 4° C. overnight, the plate was washed three times with PBST (PBS with 0.05% Tween 20 [VWR, 0777]). The plate was then blocked for an hour with 2% BSA (EMD Millipore, 126609) in PBST at room temperature with gentle rocking. Thereafter, the 2% BSA in PBST was discarded and antibody or inhibitor (3-fold dilutions beginning at 20 μg/ml, 60 μg/ml, or 180 μM) in 2% BSA in PBST was added to the wells. Afterwards, 2 μg/ml of human TIM3 (Aero Biosystems, TM3-H5229) in 2% BSA in PBST was added to the antibody or inhibitor in the wells in a 1:1 ratio. The plate was incubated for an hour at room temperature with gentle rocking. Thereafter, the plate was washed three times with PBST, and 0.3 μg/ml of human TIM3 Biotinylated Antibody (R&D Systems, BAF2365) in 2% BSA in PBST was added to the wells. The plate was incubated for an hour with gentle rocking and then washed three times with PBST. Avidin-HRP (1:2000) was then added to the wells. The plate was incubated at room temperature for an hour with gentle rocking and then washed three times with PBST. TMB substrate (Thermo Scientific, 34029) was then added to each well. The reaction was stopped with 1M HCl (JT Baker, 5620-02) and read using a plate reader (Molecular Devices) at absorbance of 450 nm.

hGal3 peptide = assay: Gal3 peptide library ELISA (Example 25); format: binding, human; details: for Epitope Mapping: hGal3 peptide No. bound; for Gal3 peptide bound: peptide array ELISA
Protocol: To identify the epitopes to which Gal3 antibodies with and without Gal3-TIM3 blocking activity bound, a library of 20 amino acid peptides representing portions of Gal3, summarized in Table 24.1, was produced and the ability to bind Gal3 antibodies was evaluated by ELISA.
At least 2 μg/ml of hGal3 peptide in 50 μl of PBS or 0.1 μg/ml of full-length human Gal3 protein (GenScript) and human Galectin-3 protein (Acro Biosystems, GA3-H5129) were diluted in PBS (Corning, 21-030-CM) to concentrations of at least 2 μg/ml or 0.1 μg/ml, respectively, and added to the wells of a 96-well ELISA plate (Thermo Fisher, 44-2404-21). After incubating the plate at 4° C. overnight, the plate was washed three times with PBST (PBS with 0.05% Tween 20 [VWR, 0777]). The plate was then blocked for an hour with 2% BSA (EMD Millipore, 126609) in PBST at room temperature with gentle rocking. Thereafter, the 2% BSA in PBST was discarded and human Galectin-3 hybridoma supernatants or antibodies were diluted in 2% BSA in PBST to concentrations of at least 0.1 μg/ml and added to the wells. The plate was incubated for an hour at room temperature with gentle rocking and then washed three times with PBST. Afterwards, Goat Anti-Mouse IgG-HRP (Jackson ImmunoResearch, 115-036-1461) or Goat Anti-Rat IgG HRP (abcam, ab205720) diluted in 2% BSA in PBST (1:4000) were added to the wells. The plate was incubated for 30 minutes to 1 hour at room temperature with gentle rocking and then washed three times with PB ST. TMB substrate (Thermo Scientific, 34029) was then added to each well. The reaction was stopped with 1M HCl (JT Baker, 5620-02) and read using a plate reader (Molecular Devices) at absorbance of 450 nm.

human Gal3-His = human Gal3-His (Homo sapiens, UniProt P17931); assay: Antibody binning by biolayer interferometry (Gator); format: binding; details: antibody competition
Protocol: To determine whether Gal3-binding antibodies with Gal3-TIM3 blocking activity bind to the same or overlapping regions of the Gal3 molecule, antibody binning assays were performed to assess the ability of antibodies to simultaneously bind Gal3. Amine-reactive probes were loaded onto a Gator biosensor (Probe Life, Palo Alto, Calif.), equilibrated in dH20 for 60 seconds, dipped into 100 μl EDC 0.2M/NHS 0.05M activation buffer for 30 seconds, then dipped into a solution of […] human Gal3-His in 10 mM NaOAc buffer, pH 5 until binding was saturated, and quenched in 1 M ethanolamine pH 8.5 for 300 seconds. Following Gal3-His loading, tips were dipped in 20 μg/mL saturating antibody, then successively dipped into 5 μg/mL competing antibody.

T1 sequence (P17931 2-250 limits assumed): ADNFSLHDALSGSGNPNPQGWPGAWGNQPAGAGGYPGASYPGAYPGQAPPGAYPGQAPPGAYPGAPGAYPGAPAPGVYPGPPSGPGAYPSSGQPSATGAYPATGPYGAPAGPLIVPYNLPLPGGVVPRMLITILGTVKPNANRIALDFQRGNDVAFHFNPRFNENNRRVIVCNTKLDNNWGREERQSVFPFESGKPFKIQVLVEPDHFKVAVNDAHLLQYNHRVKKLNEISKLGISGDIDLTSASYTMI
Galectin-3, sequence (P17931 whole entry): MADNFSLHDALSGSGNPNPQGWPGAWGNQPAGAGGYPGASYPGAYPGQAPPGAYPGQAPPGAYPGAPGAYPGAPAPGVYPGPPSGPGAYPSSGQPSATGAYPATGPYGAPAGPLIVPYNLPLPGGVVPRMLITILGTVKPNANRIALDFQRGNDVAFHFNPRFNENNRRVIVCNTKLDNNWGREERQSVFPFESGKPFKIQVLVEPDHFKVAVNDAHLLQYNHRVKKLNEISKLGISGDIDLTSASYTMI
human Gal3-His, sequence (P17931 whole entry): as above

Molecule | picosirius red staining of kidney, qualitative [1] | KIM-1 levels [1] | serum NGAL levels [1] | picosirius red staining of kidney, image quantification [1] | Kd (Galectin-3) | GAL3-TIM3 Blocking @ 3 ug/mL [2] | Epitope Mapping (hGal3 peptide) | Gal3 peptide bound (hGal3 peptide) | Bin (human Gal3-His) | assembly of GAL3 and TIM3, % of levels observed in the absence of a GAL3-targeted antibody ([2]; 3 μg/mL (FIG. 24)) | IC50 ([2]; titration series, purified GAL3 and TIM3)
CN(C)C(=N)N=C(N)N [metformin, reference compound] | substantial reductions in picosirius red staining | the reduction was not statistically significant | significantly impact NGAL levels | 1.83% |  |  |  |  |  |  | 
2D10.2B2: murine anti-Gal3 antibody (antibody, V domains shown) VH: QVQLQQSGPELVKPGASVKISCKASGYTFTDYYINWVKQRPGQGLEWIGWIYPGSNDTKYNEKFKGKATLTVDTSSSTAYMQLGSLTSEDSAVYFCANYFGCSGWFFDVWGTGTTVTVSS VL: DIVMTQAAFSNPVTLGTSASISCRSSKSLLHSDGITYLYWYLQRPGQSPQLLIYRMSNLASGVPDRFSGSGSGTDFTLRISRVEAEDVGVYYCAQMIEFPLTFGAGTILELK |  |  |  |  | 0.753 nM | 86% | 6 | peptide 6 | 3 |  | 
4A11.2B5: murine anti-Gal3 antibody, origin of IMT006-1 and IMT006-5 (antibody, V domains shown) VH: QVQLQQSGPELVKPGASVKISCKASGYSFTNYYIHWVKQRPGQGLEWIGWIYPGSGNTNYNEKFKGKATLTADTSSSTTNMQLSSLTSEDSAVYYCSTAPGGFDVWGSGTTVTVSS VL: DIVMTQAAFSNPVTLGTSASISCRSSKSLLHSDGITYLYWYLQRPGQSPQLLIYRMSNLASGVPDRFSGSGSGTDFTLRISRVEAEDVGVYYCAQMLEFPLTFGAGTKLELK |  |  |  |  | 5.22 nM | 48% | 6 | peptide 6 | 3 |  | 
13A12.2E5: murine anti-Gal3 antibody (antibody, V domains shown) VH: QIQLVQSGPELKKPGETVKISCKTSGYKFKTYVMSWVKQAPGKALKWMGWINTYSGVPTYADDFKGRFAFSLETSASTAYLEIINLKNEDTATYFCARDGNYGDPMDYWGQGTSVTVSS VL: DVVMTQTPLTLSVAIGQPASISCKSSQSLLYTNGKTYLNWLLQRPGQSPKRLIYLLSKLDSGVPDRFSASGSGTDFTLKISRVEAEDLGVYYCLQSTHFPLTFGAGTKLEMK |  |  |  |  | 8.2 nM | 35% |  | peptide 4; also recorded: peptide 6 |  |  | 
846.2H3: murine anti-Gal3 antibody (antibody, V domains shown) VH: QIQLVQSGPELKKPGETVKISCKASGYTFTNYGMNWVKQAPGKGLKWMGWINTYTGEPSYADDFKGRFAFSLETSASTAYLQINNLKNEDMATYFCARWGGYDGDYYAMDYWGQGTSVTVSS VL: NIMMTQSPSSLAVSAGEKVTMSCKSSQSVLYSSNQKNYLAWYQQKPGQSPKLLIYWASTRESGVPDRFTGSGSGTDFTLTISSVQPEDLAVYYCHQYLSSLTFGAGTKLELK |  |  |  |  | 10.2 nM | 100% | 6 | peptide 6 | 3 | less than 5% | 
IMT006-1: humanized anti-Gal3 antibody derived from 4A11.2B5 (antibody, V domains shown, VH of IMT006-1; VL of IMT006-1, humanized anti-Gal3 antibody derived from 4A11.2B5) VH: QVQLVQSGAEVKKPGASVKVSCKASGYSFTNYYMHWVRQAPGQGLEWMGWIYPGSGNTNYNEKFQGRVTMTADTSISTAYMELSRLRSDDTAVYYCSTAPGGFDVWGQGTTVTVSS VL: DIVMTQTPLSLSVTPGQPASISCKSSKSLLHSDGITYLYWYLQKPGQSPQLLIYRMSNLASGVPDRFSGSGSGTDFTLKISRVEAEDVGVYYCAQMLEFPLTFGQGTKLEIK | substantial reductions in picosirius red staining | significantly reduced | significant reductions in serum NGAL levels | 1.26% |  |  |  |  |  |  | 26.5 nM
13G4.2F8: murine anti-Gal3 antibody (antibody, V domains shown) VH: QVQLQQPGAELVKPGASVKLSCKASGYTFTSYWMHWVKQRPGQGLEWIGMIHPNSGSTDYNEKFKNKATLNVDKSSSTAYIQLSSLTSEDSAVYYCTRWGIYYYARDYWGQGTTLTVSS VL: DIVMTQSQKFMSTSVGERVSITCKASQNVGTNVAWYQQKAGQSLELLIYGASNRHTGVPDRFTGSGSGTDFTLTITNVQSEDMTNYFCEQYSNFPLTFGAGTKLELK |  |  |  |  | 2.53 nM | 0% | Non-linear |  |  |  | 
